Results on two variants are retold here after IntAct's records for PubMed 33393904.

First the molecules themselves.
B1: SUN domain-containing protein 2 (Homo sapiens), Q9UH99 (parent)
chain: MSRRSQRLTRYSQGDDDGSSSSGGSSVAGSQSTLFKDSPLRTLKRKSSNMKRLSPAPQLGPSSDAHTSYYSESLVHESWFPPRSSLEELHGDANWGEDLRVRRRRGTGGSESSRASGLVGRKATEDFLGSSSGYSSEDDYVGYSDVDQQSSSSRLRSAVSRAGSLLWMVATSPGRLFRLLYWWAGTTWYRLTTAASLLDVFVLTRRFSSLKTFLWFLLPLLLLTCLTYGAWYFYPYGLQTFHPALVSWWAAKDSRRPDEGWEARDSSPHFQAEQRVMSRVHSLERRLEALAAEFSSNWQKEAMRLERLELRQGAPGQGGGGGLSHEDTLALLEGLVSRREAALKEDFRRETAARIQEELSALRAEHQQDSEDLFKKIVRASQESEARIQQLKSEWQSMTQESFQESSVKELRRLEDQLAGLQQELAALALKQSSVAEEVGLLPQQIQAVRDDVESQFPAWISQFLARGGGGRVGLLQREEMQAQLRELESKILTHVAEMQGKSAREAAASLSLTLQKEGVIGVTEEQVHHIVKQALQRYSEDRIGLADYALESGGASVISTRCSETYETKTALLSLFGIPLWYHSQSPRVILQPDVHPGNCWAFQGPQGFAVVRLSARIRPTAVTLEHVPKALSPNSTISSAPKDFAIFGFDEDLQQEGTLLGKFTYDQDGEPIQTFHFQAPTMATYQVVELRILTNWGHPEYTCIYRFRVHGEPAH

In this test the parent is B1. To be noted: with syne1_human SYNE1, Q8NF91.
In the case of C705A, the “effect of a mutation on the interaction” value was “increasing interaction strength”.
Take I579E: the “effect of a mutation on the interaction” value is recorded as “disrupting interaction strength”.
